This data set can be described thus: label from the status in PepcDB records.

“MYRLLALFVPPEAAFRTGRGFSFDAGEVTGAIGDSVTVLPLVVALGLLTPASLPHLLAGFGVFQVIWGLYYGVPLSVEPMKALAGLAIAGTLSHGGLVAAGLVAGGVLLVAGRTGSLSWIQQFVGEPVVRGVQFAVACLLVVAAVDLVAGSVGIAAAGAGLALVVALVSRNAVALVVLAVGAVWAATAGGIPAPAAPSLELFPAGGPTLSVGAIEGLLAQLAMTVGNAAVATSLLLSDLYDAEISPDRLADSMGAMNLAAVPLGAVPMCHGSGGLAGKHAFGARTGTANLVAGGFYAGLALVAGLLAAFPMALLGVLLVVVAASLSRVAFTKTDRRLFVAGVGGLAVVTNVAVAFVAATLWWQLRG”: the protein production result is “failed”.

For the sequence “MYRMDKYTIGLIRVITLEDKEILNLHGRIIESAFPELKVVSRCIEDQPKGIYNEETEREAEPKIIRLAKEFEREGVDAIIISCAADPAVEKVRKLLSIPVIGAGSSVSALALAYGRRVGVLNLTEETPKVIRSILGNNLIAEDHPSGVSNTLDLLTDWGRREVINAAKRLKEKGVEVIALGCTGMSTIGIAPVLEEEVGIPVIDPVIASGAVALHALKRREVKRFEGR”, the protein production result is listed as “not failed”.

Take “MYRTTGPALRPGGFELTDWAVEHCRFQAGDRILDVGCGRGATVDRLRSHYHLEAYGIDPSATLLTLGQETYPDLPLSKARGEDIPFTNSCFDGVFVECSLSLMTDPDQALSEIRRVLKVKGKLIIHDVYARNPQGTPDLRELSIGTCIRNALVKEDLEHGLESKGLRTIHWQDHSPLLNRLMMELIMTHGSMSAFWLKSTHCSADSNRVQAALKKAKVGYFQLIAEKEAEKEAEHCPVR”: the protein production entry is “failed”.

Turning to “MYSELKEGVNLYNKKDYQEALVFFLSVSTEDVLIKIEINYYIGLIYSRLSEYEQALEYLEQVVTASKDIAKVYQCRLILAFIYANTGRTRLAEFELSKLIEAGYESVQVFSSLAYVYYEHHEIEKAIDYYEKALKTAPENSTALNGLAYILAETDRDLTRSLLLCKKAVEKQPENPAYLDSMALIYHKMNLPSEAKSYITRAKEKLPDNKIILKHFEMISSDAREA”, the protein production entry was “failed”.

Take “MYTYSLLNLSHCRRQTRKKRKTDHTEGFLMEETKPKTVEDVETVDVYTAKGFLSTGHRYLDVRTNEEFAKSHVEEALNIPYMFKTDEGRVINPDFLSQVASVCKKDEHLIVACNAGGRGSRACVDLLNEGYDHVANMGGGYSAWVDAGFAGDKPPEDLKIACKFRPKEN”: the protein production result was “failed”.

Consider “MYYLFIFEMLWLLFVIVFVSFLSFSDFDRKKVNYFSVVIVGILLSITAGFRNVGGVDTDYAIYKNHYNGELGSYSYELFEPGYNTVVWLGNIVGLSFNLFVFILTSICLLLLLKLIFKYSKYPMLSVMIYLGTYFLFYNMVLMRQMVSVVMFLYCINYTIEKKYIKCLLCFLVGLSFHLSMIVFLPAFFVLRYFKLNIWNIIFILIIGVFLKIVGAINLVMFVGGVIESRMANYLAGDGFTLNIMEYIKMIIIICAILILFPKLIGDYFNEILIKSYCVFFILIFAFGDIEIFFRIAMYFDLVILFLIPILFDKISMTRFSRITIYTLVVIFFAFSFIYRVHNFDNGEFYQYKFFFLE”, for which the protein production entry is listed as “failed”.

For the sequence “NAVHFGAGNIGRGFIGKLLADAEVEVTFADVDVPLVDQLSHKQEYKVKVVGTECKIDTVTHVTAVNSASEDVIDRIVKTDLVTTAVGPNVLDIIAKTIAKGIAKRFEAGNDAPLNIIACENMVRGTTHLKGEVYKHLDKSLHAKADELVGFVDSAVDRIVPPAEAANDDPLEVTVESFSEWIVDEQQFKGDIPNIAGMEKTNN”, the protein production result is “not failed”.

Turning to “NDALRVMAGDLQRSEEKFRSMTDAAHDAVFMLNNEGKIVYRNTAAETLFGFSREEYGDQLFWELISPEFADFNIHDVCEMMPDEALPDFNSETRVRQIEGLRKDGSLVPIEISRGCVHIESVHHTVVIARDIT”, the protein production result was “failed”.

As for “NFATGTIATDPLNDSQVAVIASISKEMPGISISTSWDRKVLETSLSSIVGSVSSEKAGLPAEEAEAYLKKGYSLNDRVGTSYLEKQYEETLQGKRSVKEIHLDKYGNMESVDTIEEGSKGNNIKLTID”, the protein production result was “failed”.

For “NFNPPTRRNWESNYFGMPLQDLVTAEKPIPLFVEKCVEFIEDTGLCTERLYRVSGNKTDQENIQKQFVQDHNINLVSMEVTVNAVAGALKAFFADLPDPLIPYSLHPELLEAAKIPDKTERLHALKEIVKKFHPVNYDVFRYVITHLNRVSQQHKINLMTADNLSICFGQPLMRPDLKSMEFLSTTKIHQSVVETFIQQCQFFFYNGEIVETTNIVAPPPPSNPG”, the protein production result is on record as “failed”.

For the sequence “NFVPGMEFSMADASSIAIIGGADGPTAIFLASQLSPDLLGAIAVAAYSYMALVPIIQPPIMKALTTPEERKIKMAQLRHVGKTEKIVFPLV”, the protein production result was “failed”.

As for “NGSERGVLLSVIDRTEERHAKGLRRQVDHRFDKLVGTISEGVLLMDDTGVFRDGNEAAQNILGRSLDEIIGSRFDDDIWNGLREDGSPLPNVEFPFWRAYVEREPVQEEVMGVYPPDAPPRWIRVNAQPLFRSGQEAPYAVLVSFDDITDERLKEEALQTSRDLLSSVLSSSL”, the protein production entry is listed as “failed”.

Take “NHSHSLAVIGSRNATQYTSQSLNYLFPSFRQLNMAIVSGLARGADSVAHQTALKYLLPTIGVLGFGHCYHYPKATLNLRTKVERNGLVISEYPPFSPISKHKFPERNRLISGLSRGVLITEAEERSGSQITIDCALEQNRNVYVLPGSMFNKMTKGNLRRINEGAQVVIDESSILYDYLF”: the protein production entry is “failed”.

Take “NIDLDVQNMAQNALKFGYDEIVKRDKDANLSTLNGAMVVVNHQSGDVLALVGGVDYEKSNYNRATQSMRQPGSSFKPFVYQVAINLGYSPMSEIADISRIFEGGAGNNEDWKPKNEGGKFLGLITLKEALTRSRNLATINLALDMGLDVLYSKLMEFGFKDIPPNLSIVLGSFGISPLEYSKFYTMFGNYGTIKDPQIIRQVQDKTGKTIMEFNSNERKVSDEAQSFLVLDMMRNVVEKGTGRNARVKDIEIAGKTGTTNKSVDAWFCGLTPEIEAIIWYGNDNNKPMRYTEGGARTAAPVFREFLTQYIEKFPDTTR”: the protein production result is recorded as “failed”.

For the sequence “NIEQLSQSLEHMANQAATLDRQRGEHHVPLFDERLFSCRSRLLTPCVKEAKSTLDAIIREQNENKLTALRAEYLTERLVAQIGAIQREISTTKIRKNEIKHSSHFRKPINVLYQELAQHQEWARRLREMVLEKERAVETAPSFMRAEAQKVLLATEQRLARCEAALLKLENQITHREK”, the protein production result was “failed”.

For “NKKIYVGMTADIMHPGLIHIIHEATKYGDVIVGLLTDKAIAEHKRLPYLTYDQRKEVVENIKGVCEVVPQEDWSYVPNLEKLKPDYIIHGDDWKTGPLREVREQVFEVMNAQGGKVIEIPYTRGINSSSLDKDIKAIGT”, the protein production result is on record as “failed”.

Consider “NKYNKIANELIKIIGEDNIISITHCATRLRVMVKDREIINDKKVEKVDEVKGVFFTSGQYQIILGTGIVNKVYAEVEKMGLKTLSKKEQDEL”, for which the protein production result is “not failed”.

On to “NLNAIQNFGAMNILCTDKTGTLTCDKIVLEKYINADGSDDHSRRILRHAFLNSYFQTGLKNLMDKAILAHVREENLEHLTEGYTKIDEIPFDFSRRRMSVVIEDQQGKRQIITKGAVEEMLNICSHAEFNGQVYELTDKLRSKAKRISDDMNRNGMRVLAIAQKSFISKARDFAVTDEDEMVLIGYLAFLDP”, for which the protein production result is on record as “failed”.

“NLNSIQNFGAIDILCTDKTGTLTQDKVVLEYHLNVNGEDDTRVLRHAYLNSYFQTGYKNLMDLAIIHKTEEEEAADSRLIDLSENYVKVDEIPFDFTRRRLTTVVQDNKGKTQMVTKGAVEEMLSICAFAECNGGVQPLTDDVRYRILETVDNLNDKGFRVLAIAQKSNPSPIGAFGVKDECDMVLIGYLAFLDP”: the protein production entry was “failed”.

On to “NNLFVYCEIEDGIVADVSLELLTKGRSLANQLGCQLEAVVAGTGLKDIEKQILPYGVDKLHVFDGEGLYPYTSLPHTSILVNLFKEEQPQICLMGATVIGRDLGPRVSSALTSGLTADCTSLEIGDHEDKKEGKVYKNLLYQIRPAFGGNIVATIVNPEHRPQMATVREGVMKKAILAADYKGEVIHHDVKKYVADTDYVVKVIERHVEKAKNN”, for which the protein production entry is on record as “failed”.

Turning to “NQPKRALRYNKRFMGDRRYMSFWSWLTTGNFVNKEFSYYKVPMELDVFDQDAFAESGVPFYVVATDIKTGKPDYIKIDHVFEQMEALRASSALPLVSEIVEYKGKRYMDGGLADSLPI”, the protein production entry is on record as “failed”.

As to “NQTRLNKLQKTLVDKQIDFAFISDYKTIQYITGFGSNPYERILAMIVFADKDPFIFAPALEVEVVKSVGWPYDLYGYQDNEDGLEMIYDHIKERSANPKKIATEQGNLTLSRFNRLQAAFPDADYSFNLTPVIEHQR”, the protein production result was “not failed”.

Turning to “NRWITRPKFTHFDLHTLNWDLCLTQANHKSGLALDMLRMLLDSLPQTVSAIEAALSQNDQVTMLSTIHKLHGASCYCGVPTTQRLCQEIESALKREARVEDLEPEILELLDELTKVESAAKQVLSQLSAEITDDQKNGLL”, the protein production result is given as “failed”.

Take “NSESKSTPKRLHVSNIPFRFRDPDLRQMFGQFGKILDVEIIFNERGSKGFGFVTFENSADADRAREKLHGTVVEGRKIEVNNATARVMTN”: the protein production result is given as “not failed”.

In the case of “NYDPFVRHSVTVKADRKTAFKTFLEGFPEWWPNNFRTTKVGAPLGVDKKGGRWYEIDEQGEEHTFGLIRKVDEPDTLVIGWRLNGFGRIDPDNSSEFTVTFVADGQKKTRVDVEHTHFDRMGTKHAKRVRNGMDKGWPTILQSFQDKIDEEGAKK”, the protein production result was “not failed”.

Regarding “PAIDYKTAFHLAPIGLVLSRDRVIEDCNDELAAIFRCARADLIGRSFEVLYPSSDEFERIGERISPVMIAHGSYADDRIMKRAGGELFWCHVTGRALDRTAPLAAGVWTFEDLSATRRVA”, the protein production result is recorded as “not failed”.

In the case of “PDGPTQLRALNLTEGFAVLHWKPPQNPVDTYDIQVTAPGAPPLQAETPGSAVDYPLHDLVLHTNYTATVRGLRGPNLTSPASITFTTGLEAPRDLEAKEVTP”, the protein production entry was “not failed”.

For the sequence “PDHGKAEWFRGADGATLRAATFFPAGPARGSVVLSPGRSEPLEKYFEVVDDLLARDFAVLLHDWRGQGLSARALPDRLKGHARGFKTFVSDYEALLDAFETRMPKPWIAVSHSMGGCLTTLALAQGETRFAAAVLSAPMLGLNTAGVPPWLARPLAFVMSRVGLAGEYVQTPYDPLTQTFQGDGLTHDETRYDRYQAQLRAHPEIALGGMTWGWADFAISACAWLRRSKSVEAIAIPVIILGAELDNRVLNADSESIARRIPKGRYVEVPGAFHEILVETDARRALFWQAFDE”, the protein production entry was “failed”.

Take “PDIGTFTVRPLDPTRDAELLHGWVTHPKSAFWMMQEARLHDVEREYMAIAASEYHDAFLGLLDDEPVFLMEKYDPAHVELVGLYEPEPGDVGMHFLVAPTDTPVHGFTRAVITAVMEHLFADPATRRVVVEPDVGNKAVHALNEAVG”: the protein production result is given as “failed”.

Regarding “PDLYNHAIVIGYGRVGSMLAQLLQSRHVPLLVIDDNSEHVLKAHAAGIPAIRGSAAADLVLAEAHPERAKIAVLAIPQPLEAGEILAKLRALNPELTLVARAQNDAEVKHLLGHGADATVVAEHEMAHSLAEMVLSSTNHPNSTRLQPAIA”, the protein production entry was “failed”.

On to “PDVSVQEMVSAYTTFVNKGIRVNPLPITRIEDQYGNVVAQFSPNMVEVLPPDAAYKMLYMLKSVVDGGTGSRLRYRYGFKLDMGGKTGTTQNNSD”, for which the protein production entry is reported as “failed”.

Consider “PEEQRQKLPDITAADPLEYKKQLLKLAISRIVFMRRFIADSLYYLPDVFFVTDKDNNIILLNKAAENLTAELGAQYHYRMPISTILNHLHNEEGHRINFDQVRNNEINSQCYAENGRAFDLRIAACRQVINQPDGWLIMLIDISAVKSAEEQRQRILHLLSHDMRSPQISILALIDRFSRTSC”, for which the protein production result is given as “failed”.

For the origin of these results see a protein production outcome set (Wang et al. 2014).
